Target: the molecule itself
Assay: SDS-PAGE and Western blot of NADE overexpressed in 293T cells, wild type against Cys-to-Ser mutants

B1: Myc-tagged mouse NADE expressed in 293T cells (pcDNA3.1(-)Myc-HisA/NADE) (other, not shown: small tags and cut ends)
chain: MANVHQENEEMEQPLQNGEEDRPVGGGEGHQPAGNNNNNNHNHNHNHHRRGQARRLAPNFRWAIPNRQMNDGLGGDGDDMEMFMEEMREIRRKLRELQLRNCLRILMGELSNHHDHHDEFCLMP
notes: It runs as 22 kDa and 44 kDa bands; also called Myc-tagged NADE; wild type NADE
B1: binds.
